Source: PMC6985235 (2020)

Target: His-TvCyP1 (Trichomonas vaginalis, UniProt A2DT06 1-173)
Experiment: ITC; 25°C

B1: His-Myb3^53–180 (domain or fragment)
chain: KGPFTEAEDDLIREYVKENGPQNWPRITSFLPNRSPKQCRERWFNHLDPAVVKHAWTPEEDETIFRNYLKLGSKWSVIAKLIPGRTDNAIKNRWNSSISKRISTNSNHKEILLPDRSKKRKAADVPKK
  Kd: 2040 µM
